Paper PMC9425029, “Secretagogin is a Ca^2+-dependent stress-responsive chaperone that may also play a role in aggregation-based proteinopathies” (The Journal of Biological Chemistry, 2022)

Target: the molecule itself
Assay: SAXS; oxidizing conditions (100 μM H2O2), SCGN about 5-15 mg/ml, without or with 8 mM Ca2+; 50 mM Tris pH 7.5, 100 mM KCl

B1: Secretagogin (mouse SCGN) (natural protein, UniProt Q91WD9 1-276, looked up)
chain: MDNARRKTPARLDAACFWQIWQRFDKEEKGYIRETELDAFFDHLLAKSGTEDTLMEENVQKVKEQLMTSHNVSKEGRILMKELASMFLSEDENFLLFFRLETPLDNSVEFMQIWRKYDADSSGFISAAELCNFLRDLFLHHKKNISEAELEEYTSTMMKIFDKNKDGRLDLNDLARILALQENFLLQFKMDASSTEERKRDFEKIFAHYDVSKTGALEGPEVDGFVKDMMELVQPSISGVDLDKFREILLRHCDVNKDGKIQKSELALCLGLKINP
notes: secretagogin, mouse, cloned in pET21b; Used Ca2+-free (apo) or with Ca2+ (holo); the assays tell them apart; also called apo-SCGN; holo-SCGN; source: E. coli BL21-DE3 (pET21b), purified (Ni-NTA-Sepharose, size-exclusion chromatography), decalcified with EDTA
  binding result: binds
